Patent US20230375531A1 (MIT, published 2023)

Columns and labels:
[1] = biological target: SARS-CoV-2 nucleocapsid (N) protein, recombinant, residues 1-419 (SARS-CoV-2, UniProt P0DTC9 1-419)
[2] = biological target: T1, truncated C-terminal domain (CTD) of SARS-CoV-2 N protein (SARS-CoV-2, UniProt P0DTC9 247-364); experiment: BLI, BA-MBP-Sso.E2 on streptavidin probes
T1 construct: domain: C-terminal domain (CTD)

[3] = biological target: T2, truncated N-terminal domain (NTD) of SARS-CoV-2 N protein (SARS-CoV-2, UniProt P0DTC9 44-180); experiment: BLI, BA-MBP-Sso.E1 on streptavidin probes
T2 construct: domain: N-terminal domain (NTD)

Binder	Kd [1]	further results
Sso.E2 (rcSso7d binder against SARS-CoV-2 N protein) (designed binder) MATVKFTYQGEEKQVDISKIKNVGRWGQIIDFDYDEGGGAIGIGAVSEKDAPKELLQMLEKQ	4.2 nM	
BA-MBP-Sso.E2 (Sso.E2 fused to biotin and maltose binding protein) (designed binder) MATVKFTYQGEEKQVDISKIKNVGRWGQIIDFDYDEGGGAIGIGAVSEKDAPKELLQMLEKQ		binding result [2]: no binding
Sso.E1 (rcSso7d binder against SARS-CoV-2 N protein) (designed binder) MATVKFTYQGEEKQVDISKIKIVRRGGQWISFWYDEGGGAYGAGYVSEKDAPKELLQMLEKQ	3.2 nM	
BA-MBP-Sso.E1 (Sso.E1 fused to biotin and maltose binding protein) (designed binder, not shown: small tags and cut ends; large carriers, also called reporter reagent) MATVKFTYQGEEKQVDISKIKIVRRGGQWISFWYDEGGGAYGAGYVSEKDAPKELLQMLEKQ		binding result [3]: no binding
